Patent US20220056125A1 (CEPHALON, published 2022)
Changes are numbered by the printed parent chain. Where “and” joins values, the source holds several entries; their conditions need not be identical. Equal values may be shown once.

T1: human PAR-2 (human, UniProt P55085 26-397)
T1 sequence: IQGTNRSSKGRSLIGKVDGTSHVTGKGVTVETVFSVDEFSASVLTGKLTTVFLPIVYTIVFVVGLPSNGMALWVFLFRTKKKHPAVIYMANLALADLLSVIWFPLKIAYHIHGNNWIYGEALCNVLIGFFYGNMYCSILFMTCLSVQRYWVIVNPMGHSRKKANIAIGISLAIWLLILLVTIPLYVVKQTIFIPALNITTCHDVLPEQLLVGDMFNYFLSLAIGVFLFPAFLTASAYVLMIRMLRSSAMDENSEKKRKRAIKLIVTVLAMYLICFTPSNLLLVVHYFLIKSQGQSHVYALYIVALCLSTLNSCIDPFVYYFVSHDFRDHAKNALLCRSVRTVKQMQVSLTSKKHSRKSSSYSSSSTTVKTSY

B1: P24E935 (antibody, human IgG4 S228P, kappa, V domains shown)
VH: QVQLVQSGAEVKKPGSSVKVSCKASGFSLSSYAISWVRQAPGQGLEWMGVIWGNGNVYYAQKFQGRVTITADESTSTAYMELSSLRSEDTAVYYCARWKGYKDHPFDYWGQGTLVTVSS
VL: EIVLTQSPATLSLSPGERATLSCRASQNVYKWLDWYQQKPGQAPRLLIYNAYSRATGIPARFSGSGSGRDFTLTISSLEPEDFAVYYCQQHHHGWTFGGGTKVEIKR
B2: P24E282 (antibody, human IgG4 S228P, kappa, V domains shown)
VH: B1 VH with A33G, I34V, S35I, V57T, K99R, H104Y
VL: B1 VL with R24K, V29I, W32Y, A51T, Y52N, Q89L, H92N, H93S
B3: P24E61 (antibody, human IgG4 S228P, kappa, V domains shown)
VH: B1 VH with S30N, A33G, I34V, S35I, V57T, A60N, K99R, H104Y
VL: B1 VL with R24K, V29I, W32F, A51T, Y52N, R54L, A55H, Q89L, H92N, H93S
B4: P24E290 (antibody, human IgG4 S228P, kappa, V domains shown)
VH: B1 VH with S30N, A33G, S35I, V57T, K99R, H104Y
VL: B1 VL with R24K, W32Y, A51T, Y52N, R54L, Q89L, H92N, H93S
B5: P24E294 (antibody, human IgG4 S228P, kappa, V domains shown)
VH: B1 VH with S30N, V57T, K99R, H104Y
VL: B1 VL with V29I, W32Y, A51T, Y52N, R54L, Q89L, H92N, H93S
B6: P24E288 (antibody, human IgG4 S228P, kappa, V domains shown)
VH: B1 VH with S30N, A33G, S35I, V57T, K99R, H104Y
VL: B1 VL with R24K, V29I, W32Y, A51T, Y52N, R54L, Q89L, H92N, H93S
B7: P24E291 (antibody, human IgG4 S228P, kappa, V domains shown)
VH: B1 VH with S30N, A33G, S35I, V57T, K99R, H104Y
VL: B1 VL with R24K, V29I, W32Y, Y52N, R54L, Q89L, H92N, H93S
B8: P24E279 (antibody, human IgG4 S228P, kappa, V domains shown)
VH: B1 VH with A33G, I34V, S35I, V57T, K99R, H104Y
VL: B1 VL with V29I, W32Y, A51T, Y52N, R54L, Q89L, H92N, H93S
B9: P24E284 (antibody, human IgG4 S228P, kappa, V domains shown)
VH: B1 VH with S30N, I34V, S35I, V57T, K99R, H104Y
VL: B1 VL with V29I, W32Y, A51T, Y52N, R54L, Q89L, H92N, H93S
B10: P24E972 (antibody, human IgG4 S228P, kappa, V domains shown)
VH: B1 VH with H104Y
VL: B1 VL
B11: P24E292 (antibody, human IgG4 S228P, kappa, V domains shown)
VH: B1 VH with S30N, A33G, S35I, V57T, K99R, H104Y
VL: B1 VL with R24K, V29I, W32Y, A51T, Y52N, Q89L, H92N, H93S
B12: P24E289 (antibody, human IgG4 S228P, kappa, V domains shown)
VH: B1 VH with S30N, A33G, S35I, V57T, K99R, H104Y
VL: B1 VL with V29I, W32Y, A51T, Y52N, R54L, Q89L, H92N, H93S
B13: P24E287 (antibody, human IgG4 S228P, kappa, V domains shown)
VH: B1 VH with S30N, I34V, S35I, V57T, K99R, H104Y
VL: B1 VL with R24K, V29I, W32Y, A51T, Y52N, Q89L, H92N, H93S
B14: P24E60 (antibody, human IgG4 S228P, kappa, V domains shown)
VH: B1 VH with S30N, A33G, I34V, S35I, V57T, A60N, K99R, H104Y
VL: B1 VL with R24K, V29I, A51T, Y52N, R54L, A55H, Q89L, H92N, H93S
B15: P24E293 (antibody, human IgG4 S228P, kappa, V domains shown)
VH: B1 VH with S30N, V57T, K99R, H104Y
VL: B1 VL with R24K, V29I, W32Y, A51T, Y52N, R54L, Q89L, H92N, H93S
B16: P24E186 (antibody, human IgG4 S228P, kappa, V domains shown)
VH: B1 VH with S30N, A33G, I34V, S35I, V57T, A60N, K99R, Y101W, H104Y
VL: B1 VL with R24K, V29I, W32Y, A51T, Y52N, R54L, A55H, Q89L, H92N, H93S
B17: P24E22 (antibody, human IgG4 S228P, kappa, V domains shown)
VH: B1 VH with S30N, A33G, I34V, S35I, V57T, K99R, H104Y
VL: B1 VL with R24K, V29I, W32Y, A51T, Y52N, R54L, A55H, Q89L, H92N, H93S
B18: P24E973 (antibody, human IgG4 S228P, kappa, V domains shown)
VH: B1 VH with H104Y
VL: B1 VL with H92G
B19: P24E936 (antibody, human IgG4 S228P, kappa, V domains shown)
VH: B1 VH
VL: B1 VL with H92G
B20: P24E280 (antibody, human IgG4 S228P, kappa, V domains shown)
VH: B1 VH with A33G, I34V, S35I, V57T, K99R, H104Y
VL: B1 VL with R24K, W32Y, A51T, Y52N, R54L, Q89L, H92N, H93S
B21: P24E977 (antibody, human IgG4 S228P, kappa, V domains shown)
VH: B1 VH with G55Q, H104Y
VL: B1 VL with N50D, H93S
B22: P24E285 (antibody, human IgG4 S228P, kappa, V domains shown)
VH: B1 VH with S30N, I34V, S35I, V57T, K99R, H104Y
VL: B1 VL with R24K, W32Y, A51T, Y52N, R54L, Q89L, H92N, H93S
B23: P24E281 (antibody, human IgG4 S228P, kappa, V domains shown)
VH: B1 VH with A33G, I34V, S35I, V57T, K99R, H104Y
VL: B1 VL with R24K, V29I, W32Y, Y52N, R54L, Q89L, H92N, H93S
B24: P24E975 (antibody, human IgG4 S228P, kappa, V domains shown)
VH: B1 VH with G55Q, H104Y
VL: B1 VL
B25: P24E971 (antibody, human IgG4 S228P, kappa, V domains shown)
VH: B1 VH with H104Y
VL: B1 VL with H93S
B26: P24E40 (antibody, human IgG4 S228P, kappa, V domains shown)
VH: B1 VH with S30N, A33G, I34V, S35I, V57T, A60N, K99R, H104Y
VL: B1 VL with R24K, V29I, W32Y, A51T, Y52N, R54L, Q89L, H92N, H93S
B27: P24E216 (antibody, human IgG4 S228P, kappa, V domains shown)
VH: B1 VH with S30N, S31Y, A33G, I34V, S35I, V57T, A60N, K99R, H104Y
VL: B1 VL with R24K, V29I, W32Y, A51T, Y52N, R54L, A55H, Q89L, H92N, H93S
B28: P24E953 (antibody, human IgG4 S228P, kappa, V domains shown)
VH: B1 VH with G55Q, H104Y
VL: B1 VL with N50D, H92G, H93S
B29: P24E41 (antibody, human IgG4 S228P, kappa, V domains shown)
VH: B1 VH with S30N, A33G, I34V, S35I, V57T, A60N, K99R, H104Y
VL: B1 VL with R24K, V29I, W32Y, N50D, Y52S, S53N, Q89L, H92N, H93S
B30: P24E233 (antibody, human IgG4 S228P, kappa, V domains shown)
VH: B1 VH with S30N, A33G, I34V, S35I, V57T, A60Y, K99R, H104Y
VL: B1 VL with R24K, V29I, W32Y, A51T, Y52N, R54L, A55H, Q89L, H92N, H93S
B31: P24E978 (antibody, human IgG4 S228P, kappa, V domains shown)
VH: B1 VH with G55Q, H104Y
VL: B1 VL with N50D
B32: P24E219 (antibody, human IgG4 S228P, kappa, V domains shown)
VH: B1 VH with S30N, A33G, I34G, S35I, V57T, A60N, K99R, H104Y
VL: B1 VL with R24K, V29I, W32Y, A51T, Y52N, R54L, A55H, Q89L, H92N, H93S
B33: P24E232 (antibody, human IgG4 S228P, kappa, V domains shown)
VH: B1 VH with S30N, A33G, I34V, S35I, V57T, A60G, K99R, H104Y
VL: B1 VL with R24K, V29I, W32Y, A51T, Y52N, R54L, A55H, Q89L, H92N, H93S
B34: P24E295 (antibody, human IgG4 S228P, kappa, V domains shown)
VH: B1 VH with S30N, V57T, K99R, H104Y
VL: B1 VL with R24K, W32Y, A51T, Y52N, R54L, Q89L, H92N, H93S
B35: P24E9 (antibody, human IgG4 S228P, kappa, V domains shown)
VH: B1 VH with A33G, I34V, S35I, V57T, A60N, K99R, H104Y
VL: B1 VL with R24K, V29I, W32Y, A51T, Y52N, R54L, A55H, Q89L, H92N, H93S
B36: P24E278 (antibody, human IgG4 S228P, kappa, V domains shown)
VH: B1 VH with A33G, I34V, S35I, V57T, K99R, H104Y
VL: B1 VL with R24K, V29I, W32Y, A51T, Y52N, R54L, Q89L, H92N, H93S
B37: P24E286 (antibody, human IgG4 S228P, kappa, V domains shown)
VH: B1 VH with S30N, I34V, S35I, V57T, K99R, H104Y
VL: B1 VL with R24K, V29I, W32Y, Y52N, R54L, Q89L, H92N, H93S
B38: P24E283 (antibody, human IgG4 S228P, kappa, V domains shown)
VH: B1 VH with S30N, I34V, S35I, V57T, K99R, H104Y
VL: B1 VL with R24K, V29I, W32Y, A51T, Y52N, R54L, Q89L, H92N, H93S
B39: P24E951 (antibody, human IgG4 S228P, kappa, V domains shown)
VH: B1 VH with G55Q, H104Y
VL: B1 VL with H92G, H93S

Target: T1, human PAR-2
Experiment: cell-based or functional assay

| PAR-2 β-arrestin cell based assay IC50, 2 µM SLIGKV | PAR-2 β-arrestin cell based assay IC50, 1 µM SLIGKV [nM] | Binder |
| --- | --- | --- |
| 1.5 nM | – | B1 |
| 2 nM | – | B2 |
| – | 2.56 | B3 |
| 2.2 nM | – | B4 |
| 2.9 nM | – | B5 |
| 1.4 nM | – | B6 |
| 3.1 nM | – | B7 |
| 2.8 nM | – | B8 |
| 2.5 nM | – | B9 |
| 1.52 nM | – | B10 |
| 1.2 nM | – | B11 |
| 2.6 nM | – | B12 |
| 2.2 nM | – | B13 |
| – | 2.03 | B14 |
| 2 nM | – | B15 |
| – | 3.25 | B16 |
| – | 2.5 | B17 |
| 2.35 nM | – | B18 |
| 1.8 nM | – | B19 |
| 1.9 nM | – | B20 |

| PAR-2 β-arrestin cell based assay IC50, 2 µM SLIGKV | PAR-2 β-arrestin cell based assay IC50, 1 µM SLIGKV [nM] | Binder |
| --- | --- | --- |
| 1.73 nM | – | B21 |
| 2.3 nM | – | B22 |
| 2.6 nM | – | B23 |
| 0.75 nM | – | B24 |
| 2.4 nM | – | B25 |
| – | 2.47 | B26 |
| – | 1.95 | B27 |
| 3.64 nM and 1.84 nM | – | B28 |
| – | 26.9 | B29 |
| – | 1.77 | B30 |
| 0.94 nM | – | B31 |
| – | 1.33 | B32 |
| – | 1.99 | B33 |
| 1.6 nM | – | B34 |
| – | 11.3 | B35 |
| 2.5 nM | – | B36 |
| 2.1 nM | – | B37 |
| 3.6 nM | – | B38 |
| 2.55 nM and 1.17 nM | – | B39 |
